Measurements taken from PMC3512577 (Nature structural & molecular biology, 2011).

B1: FH19–20 (wild-type recombinant fragment of human complement factor H, CCP modules 19 and 20) (domain or fragment, UniProt P08603 1108-1231, looked up)
chain: KCGPPPPIDNGDITSFPLSVYAPASSVEYQCQNLYQLEGNKRITCRNGQWSEPPKCLHPCVISREIMENYNIALRWTAKQKLYSRTGESVEFVCKRGYRLSSRSHTLRTTCWDGKLEYPTCAKR
modifications: 15N-labelled (NMR experiments only)

Columns and labels:
[1] = target: recombinant C3d D122A (D1115A) (human) (UniProt P01024); experiment: SPR
[2] = target: recombinant C3d E117A/D122A (E1110A/D1115A), with C17A (C1011A) (human, UniProt P01024 996-1306, E117A (E1110A) | D122A (D1115A)); experiment: SPR
[3] = target: recombinant C3d E117A (E1110A), with C17A (C1011A) (human, UniProt P01024 996-1306, E117A (E1110A)); experiment: SPR
[4] = target: recombinant C3d D122A (D1115A), with C17A (C1011A) (human, UniProt P01024 996-1306, D122A (D1115A)); experiment: SPR
plasma-derived C3d = plasma-derived C3d (UniProt P01024 996-1303); experiment: NMR titration

Molecule	Kd [1]	Kd [2]	fold decrease in affinity against wild-type C3d [2]	fold decrease in binding against C3d E160A and I164A [3]	fold decrease in binding against wild-type C3d [3]	fold decrease in binding against C3d E160A and I164A [4]	fold decrease in binding against wild-type C3d [4]	binding result (plasma-derived C3d)
FH19–20 L1189F (from UniProt P08603 1108-1231) (domain or fragment)	46 µM	–	–	–	–	–	–	–
complement factor H CCP19–20, wild type (FH19–20) (from UniProt P08603 1108-1231) (domain or fragment)	46 µM	–	–	–	–	–	–	–
B1	–	~30000 µM	~1600 fold	2 fold	4 fold	3 fold	6 fold	binds
